Reference: US20190117763A1

Biological target: wildtype PV1 VLPs (74S empty capsids, N-antigenic form) (poliovirus serotype 1 (PV1), Mahoney strain) (UniProt P03300)
Sequence of UniProt P03300 (P03300 2-341 limits assumed, chain 1 of 3): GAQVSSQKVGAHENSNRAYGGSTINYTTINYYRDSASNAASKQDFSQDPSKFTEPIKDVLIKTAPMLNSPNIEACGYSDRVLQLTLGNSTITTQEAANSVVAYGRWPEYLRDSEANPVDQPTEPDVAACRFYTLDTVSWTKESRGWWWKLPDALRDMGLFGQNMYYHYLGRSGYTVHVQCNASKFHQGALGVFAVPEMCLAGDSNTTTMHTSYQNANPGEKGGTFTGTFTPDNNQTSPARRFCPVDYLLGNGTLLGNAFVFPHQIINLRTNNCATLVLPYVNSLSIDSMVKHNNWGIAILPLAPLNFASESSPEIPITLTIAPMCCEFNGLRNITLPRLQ
Sequence of UniProt P03300 (P03300 342-579 limits assumed, chain 2 of 3): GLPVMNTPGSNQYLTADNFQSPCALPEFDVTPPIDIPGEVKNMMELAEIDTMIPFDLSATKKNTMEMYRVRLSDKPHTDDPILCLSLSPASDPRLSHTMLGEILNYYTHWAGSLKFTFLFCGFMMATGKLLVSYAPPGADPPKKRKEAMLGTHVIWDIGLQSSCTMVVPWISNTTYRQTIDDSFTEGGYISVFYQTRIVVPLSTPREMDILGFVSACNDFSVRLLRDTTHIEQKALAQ
Sequence of UniProt P03300 (P03300 580-881 limits assumed, chain 3 of 3): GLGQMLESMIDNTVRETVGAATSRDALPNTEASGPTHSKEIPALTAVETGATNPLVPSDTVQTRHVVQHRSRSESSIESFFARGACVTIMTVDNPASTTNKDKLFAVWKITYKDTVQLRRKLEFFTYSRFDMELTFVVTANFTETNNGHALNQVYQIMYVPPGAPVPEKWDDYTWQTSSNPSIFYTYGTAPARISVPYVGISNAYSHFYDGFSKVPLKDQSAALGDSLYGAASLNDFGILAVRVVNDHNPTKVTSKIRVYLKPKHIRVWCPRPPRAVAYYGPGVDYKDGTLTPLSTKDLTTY

Substance: Novus 14D2(7C5) monoclonal antibody
- N-antigenic units/µl (N-antigenic units/µl): 6.15
